What was measured:
[1] = molecular target: T1, anti-FXI/FXIa antibody NOV1401; test: solution equilibrium titration (SET), constant Fab with NOV1401 titrated in solution, free Fab captured on biotinylated NOV1401, 1:1 fit; average of n=3
T1 construct: It was amine-coupled to the chip in SPR; In SET it was titrated in solution, and biotinylated NOV1401 served only as the capture reagent on the plate
Protocol: After washing the plate again three times, 30 μl of detection reagent (LumiGLO Peroxidase Chemiluminescent Substrate, KPL#54-61-01) was added to each well. Electrochemiluminescence (ECL) signals were generated and detected immediately with a luminescence imager (SpectraMax M5, Molecular Devices, LLC).
Average ECL-signals were calculated from duplicate measurements within each assay. Data were baseline adjusted by subtracting the lowest value from all data points and plotted against the corresponding antigen concentration.

[2] = molecular target: T1, anti-FXI/FXIa antibody NOV1401; test: cell-based or functional assay
[3] = molecular target: T1, anti-FXI/FXIa antibody NOV1401; test: cell-based or functional assay; remark: listed apart in the source
[4] = molecular target: T1, anti-FXI/FXIa antibody NOV1401; test: SPR (ProteOn XPR36), NOV1401 amine-coupled on the chip, Fab as analyte 0.125-4 nM, Langmuir 1:1 fit, 25 C; n=1
Protocol: SPR binding experiments were performed on a ProteOn XPR36 instrument (Bio-Rad Laboratories, Inc.) in PBS/T buffer (50 mM phosphate, 150 mM NaCl, pH 7.4, 0.005% v/v Tween-20) at 25° C. […] Unreacted groups were blocked by injecting 1 M ethanolamine.
Blank surfaces were used for background corrections. There was no need to regenerate surfaces since the ProteOn protein interaction array system allows to run up to six binding experiments on an identical surface in parallel.
Data processing and analysis including kon, koff, and KD determination were performed with the ProteOn Manager™ software version 3.1.0.6. Sensorgrams were fitted by applying a Langmuir 1:1 binding model (Rmax set at global) and dissociation constants were calculated from kon and koff.

T1 sequence (VH, as listed by the source, chain 1 of 2): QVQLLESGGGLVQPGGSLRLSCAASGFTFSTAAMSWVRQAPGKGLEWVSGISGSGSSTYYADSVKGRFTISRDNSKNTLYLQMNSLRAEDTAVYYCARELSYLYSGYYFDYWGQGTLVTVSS
T1 sequence (VL, as listed by the source, chain 2 of 2): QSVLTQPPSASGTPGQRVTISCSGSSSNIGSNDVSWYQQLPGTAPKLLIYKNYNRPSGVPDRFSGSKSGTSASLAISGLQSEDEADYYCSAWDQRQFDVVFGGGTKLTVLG

B1: IDT2 anti-NOV1401 Fab (Fab, V domains shown)
VH: QVQLVESGGGLVKPGGSLRLSCAASGFTFSSAAVHWVRQAPGKGLEWVGRIKSKADGGTTDYAAPVKGRFTISRDDSKNTLYLQMNSLKTEDTAVYYCARDSPSISSYSIPYFSGMDVWGQGTLVTVSS
VL: DIQMTQSPSSLSASVGDRVTITCRASQGIRAWLNWYQQKPGKAPKLLIYAASSLQSGVPSRFSGSGSGTDFTLTISSLQPEDFATYYCHQYITHPPTFGQGTKVEIKR
notes: Human Fab; The heavy chain entry is VH-CH1 (Fd); also called antidote
Q: With B1 as the binder, how does the Kd [1] read?
A: 100 pM

Q: What about the “percentage reversal of NOV1401 aPTT prolongation, NOV1401/anti NOV1401 ratio 1/1 (n/n)” value [2] of the same binder?
A: 21%

Q: What about the “percentage reversal of NOV1401 aPTT prolongation, NOV1401/anti NOV1401 ratio 1/3 (n/n)” value [2] of the same binder?
A: 42%

Q: And the “percentage reversal of NOV1401 aPTT prolongation, NOV1401/anti NOV1401 ratio 1/10 (n/n)” value [2]?
A: 55%

Q: And the “percentage reversal of the NOV1401 effect on thrombin generation (TGA), NOV1401/anti NOV1401 ratio 1/1 (n/n)” value [3]?
A: 55%

Q: And the “percentage reversal of the NOV1401 effect on thrombin generation (TGA), NOV1401/anti NOV1401 ratio 1/3 (n/n)” value [3]?
A: 57%

Q: And the “percentage reversal of the NOV1401 effect on thrombin generation (TGA), NOV1401/anti NOV1401 ratio 1/10 (n/n)” value [3]?
A: 61%

Q: And the Kd [4]?
A: 230 pM

Reference: patent US20200317816A1 (Novartis, published 2020)
